{
  "source": "patent US20130004429A1",
  "target": "tubulin (rat)",
  "experiment": "cell-based or functional assay",
  "note": "Ends that are not written are not given here. * marks the point of attachment. Biotin = O=C1N[C@H]2[C@H](CS[C@H]2CCCCC(=O)*)N1",
  "data": [
    {"binder": "Biotin-YSSYSAPVSSSLSVRRSYSSSSGS", "note": "[NFL-TBS40-63 peptide, biotinylated]", "values": [
      {"measurement": "cells with altered microtubule network (immunocytochemistry), 9L rat glioma cells", "result": 76.7, "unit": "%"},
      {"measurement": "cells with altered microtubule network (immunocytochemistry), F98 rat glioma cells", "result": 82, "unit": "%"},
      {"measurement": "cells with altered microtubule network (immunocytochemistry), rat neurons", "result": 8.5, "unit": "%"},
      {"measurement": "cells with altered microtubule network (immunocytochemistry), rat primary astrocytes", "result": 4.7, "unit": "%"}
    ]}
  ]
}
